In publication PMC4072508 (PLoS Computational Biology, 2014):
FAM = fluorescein group

T1: Bcl-w (human, UniProt Q92843 1-193)
T1 construct: human Bcl-w; The c-Myc tag is told for the SPOT arrays; also called c-Myc-tagged receptor; prosurvival protein
T1 sequence (looked up): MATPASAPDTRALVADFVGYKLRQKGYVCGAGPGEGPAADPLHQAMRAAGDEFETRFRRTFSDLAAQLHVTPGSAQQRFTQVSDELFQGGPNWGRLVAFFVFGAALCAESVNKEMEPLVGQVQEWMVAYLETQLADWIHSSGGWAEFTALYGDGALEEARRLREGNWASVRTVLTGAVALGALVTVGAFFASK

T2: Bfl-1 (human, UniProt Q16548 1-175)
T2 construct: human Bfl-1; The c-Myc tag is told for the SPOT arrays; also called c-Myc-tagged receptor; prosurvival protein
T2 sequence (looked up): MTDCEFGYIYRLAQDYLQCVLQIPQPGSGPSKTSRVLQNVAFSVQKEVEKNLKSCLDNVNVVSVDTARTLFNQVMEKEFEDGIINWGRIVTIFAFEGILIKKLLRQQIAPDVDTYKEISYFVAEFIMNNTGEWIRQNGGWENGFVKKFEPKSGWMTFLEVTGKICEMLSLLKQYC


How the values were obtained:
Assay in all cases: fluorescence polarisation; direct binding: 10 nM FAM-labeled peptide, receptor serially diluted; 25°C; 20 mM NaPO4, 50 mM NaCl, 1 mM EDTA, 0.001% Triton X, pH 7.8; single-site binding model
Details in all cases: both partners purified
[1] = target: T1, Bcl-w
[2] = target: T3, Mcl-1 (human, UniProt Q07820 1-350)
T3 construct: human Mcl-1; The c-Myc tag is told for the SPOT arrays; also called c-Myc-tagged receptor; prosurvival protein
T3 sequence (Q07820 whole entry): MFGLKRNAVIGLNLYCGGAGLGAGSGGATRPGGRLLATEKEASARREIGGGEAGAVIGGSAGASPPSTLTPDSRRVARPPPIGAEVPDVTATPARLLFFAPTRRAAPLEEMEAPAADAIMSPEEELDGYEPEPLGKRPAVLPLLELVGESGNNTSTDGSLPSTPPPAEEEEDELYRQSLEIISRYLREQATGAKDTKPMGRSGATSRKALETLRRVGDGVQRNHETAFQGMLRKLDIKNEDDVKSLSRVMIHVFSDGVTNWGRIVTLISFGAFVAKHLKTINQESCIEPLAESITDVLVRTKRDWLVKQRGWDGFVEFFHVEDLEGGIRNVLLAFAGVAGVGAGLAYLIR

[3] = target: T4, Bcl-2 (human, UniProt P10415 1-239)
T4 construct: human Bcl-2; The c-Myc tag is told for the SPOT arrays; also called c-Myc-tagged receptor; prosurvival protein
T4 sequence (P10415 whole entry): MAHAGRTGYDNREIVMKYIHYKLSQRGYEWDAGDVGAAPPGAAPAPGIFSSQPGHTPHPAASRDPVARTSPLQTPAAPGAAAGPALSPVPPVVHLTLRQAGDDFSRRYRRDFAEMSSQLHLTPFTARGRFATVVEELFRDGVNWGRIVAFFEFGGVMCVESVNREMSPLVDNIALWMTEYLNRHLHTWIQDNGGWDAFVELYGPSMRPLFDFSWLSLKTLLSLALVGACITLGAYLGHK

[4] = target: T2, Bfl-1

Row | Kd [1] [µM] | Kd [2] [µM] | Kd [3] [µM] | Kd [4] [µM] | Binder
1 | < 0.03 | < 0.03 | < 0.03 | < 0.03 | {FAM}-IIQMIVELLKRVGDQWEEEQSLA-NH2 [c6orf222 BH3-like peptide]
2 |  |  | 0.04 |  | {FAM}-PFKAWGKFGGAFCRYADEMKEIQERQ-NH2 [PURB BH3-like peptide]
